The target of this assay is N-terminally truncated N-terminally His6-tagged human aspartate/asparagine-β-hydroxylase (His6-AspH315–758) (human) (UniProt Q12797).
Sequence of UniProt Q12797 (Q12797 315-758): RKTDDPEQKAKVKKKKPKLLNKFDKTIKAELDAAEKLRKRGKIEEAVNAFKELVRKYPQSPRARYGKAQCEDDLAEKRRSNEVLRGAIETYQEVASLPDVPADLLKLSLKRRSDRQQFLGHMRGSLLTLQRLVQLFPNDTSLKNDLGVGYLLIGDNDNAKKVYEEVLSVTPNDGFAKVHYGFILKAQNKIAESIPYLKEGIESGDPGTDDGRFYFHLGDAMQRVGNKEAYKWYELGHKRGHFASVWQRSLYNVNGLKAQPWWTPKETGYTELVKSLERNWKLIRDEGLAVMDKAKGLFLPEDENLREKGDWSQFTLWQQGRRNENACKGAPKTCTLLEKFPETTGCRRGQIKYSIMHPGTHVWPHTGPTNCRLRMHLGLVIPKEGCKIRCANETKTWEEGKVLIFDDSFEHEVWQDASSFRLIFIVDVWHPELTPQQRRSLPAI

Consider “hHMCN1-CP5164–5182, thioether-bridged cyclic peptide derived from EGFD2 of human hemicentin-1 (from UniProt Q96RW7 5164-5182)”, for which the Km of AspH for the peptide substrate, steady-state kinetics of hydroxylation by SPE-MS (0.1 μM His6-AspH315–758, 50 mM Hepes, pH 7.5, 20 °C) is 7.9 μM.

On to “hLYPD6B-CP65–83, thioether-bridged cyclic peptide derived from the LU domain of human LYPD6B (from UniProt Q8NI32 65-83)”, for which the Km of AspH for the peptide substrate, steady-state kinetics of hydroxylation by SPE-MS (0.1 μM His6-AspH315–758, 50 mM Hepes, pH 7.5, 20 °C) was determined as 47 μM.

The values above are taken from PMC9293771.
